Numbering of substitutions follows the chain as printed. Several values for one entry are separate records, joined by “and”; a condition that tells them apart may be missing. Equal entries are not always repeated.
T1: Glycosylated human CXCL13 (MEL cell derived) (human, UniProt O43927 23-104, glycosylated (site not stated))
T1 sequence: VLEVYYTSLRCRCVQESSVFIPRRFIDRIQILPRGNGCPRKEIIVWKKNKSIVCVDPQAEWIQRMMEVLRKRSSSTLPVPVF

T2: CXCL10 (IP10) (UniProt P02778 22-98)
T2 construct: also called CXCL10 (R&D Systems)
T2 sequence (looked up): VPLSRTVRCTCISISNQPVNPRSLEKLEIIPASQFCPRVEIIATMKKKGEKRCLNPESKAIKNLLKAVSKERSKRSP

T3: CXCL5 (ENA-78) (UniProt P42830 37-114, limits assumed)
T3 construct: also called CXCL5 (R&D Systems)
T3 sequence (looked up): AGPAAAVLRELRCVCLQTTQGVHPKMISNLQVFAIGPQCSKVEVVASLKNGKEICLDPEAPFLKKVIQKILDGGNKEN

T4: CXCL6 (GCP-2) (UniProt P80162 38-114, limits assumed)
T4 construct: also called CXCL6 (R&D Systems)
T4 sequence (looked up): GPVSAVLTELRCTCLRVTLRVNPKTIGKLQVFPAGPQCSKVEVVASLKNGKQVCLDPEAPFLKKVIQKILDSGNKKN

T5: CXCL3 (GROγ) (UniProt P19876 35-107)
T5 construct: also called CXCL3 (R&D Systems)
T5 sequence (looked up): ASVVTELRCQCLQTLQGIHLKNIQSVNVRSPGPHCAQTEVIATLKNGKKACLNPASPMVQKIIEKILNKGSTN

T6: CXCL8 (IL-8) (UniProt P10145 28-99)
T6 construct: also called CXCL8 (R&D Systems)
T6 sequence (looked up): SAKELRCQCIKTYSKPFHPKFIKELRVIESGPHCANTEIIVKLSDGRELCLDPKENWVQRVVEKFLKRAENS

T7: Biotinylated human CXCL13 (Almac) (human, UniProt O43927 23-109, biotin at the most C terminal lysine residue)
T7 construct: also called human CXCL13 biotinylated near the C-terminus (Almac custom synthesis)
T7 sequence: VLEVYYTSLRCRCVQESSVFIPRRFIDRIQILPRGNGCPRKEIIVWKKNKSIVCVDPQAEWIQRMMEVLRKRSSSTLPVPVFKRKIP

B1: Antibody 1 (germlined IgG1) (antibody, V domains shown)
VH: EVQLLESGGGLVQPGGSLRLSCAASGFTFGNSWMSWVRQAPGKGLEWVSAISGSGGSTYYADSVKGRFTISRDNSKNTLYLQMNSLRAEDTAVYYCTRDLPGIAVAGYWGQGTLVTVSS
VL: DTQMTQSPSTLSASVGDRVTITCRASEGIYHWLAWYQQKPGKAPKLLIYKASSLASGVPSRFSGSGSGTEFTLTISSLQPDDFATYYCQQYSNYPLTFGGGTKLEIKR
notes: also called germlined Antibody 1 IgG1; antibody 1 (IgG1)
B2: Antibody 1 (germlined IgG1) Fab (Fab, V domains shown)
VH: B1 VH
VL: B1 VL
notes: also called Size Exclusion Chromatography monomerized Fab fragments of Antibody 1
B3: Human CXCL13 (MEL cell derived), unglycosylated (ligand)
chain: T1 sequence
notes: also called hCXCL13; Unglycosylated hCXCL13
B4: Cynomolgus CXCL13 (MEL cell derived) (ligand)
chain: T1 sequence with S8H, L32S, I52V, M65I, V68M, R72K, L77P
modifications: glycosylated (site not stated)
notes: also called Cyno CXCL13; glycosylated cyno CXCL13

Tests used:
[1] = target: B3; test: SPR (BIAcore 2000), IgG captured on Protein G', human CXCL13 0.25-20 nM flowed; 1:1 Langmuir with mass transport limitation
From the text: (§1) Standard amine linkage chemistry was employed to create blank and 265 RU surfaces of Protein G′ (Sigma P4689) on Flow cells (Fc) 1 and 2, respectively, of a normalized CM5 chip (BIAcore, BR-1000-14). This Fc 2 Protein G′ surface was used to capture 240-385 RUs Antibody 1 (germlined IgG₁).

[2] = target: B3; test: cell-based or functional assay
[3] = target: T1, Glycosylated human CXCL13 (MEL cell …); test: cell-based or functional assay
[4] = target: B4; test: cell-based or functional assay
CXCL10 (IP10) = target: T2, CXCL10 (IP10); test: CXCL13 FLISA competition assay (FMAT, biotinylated human CXCL13 on streptavidin beads)
Method: (§2) Samples and reagents were diluted in Assay Buffer (Phosphate Buffered Saline with 0.1% BSA, 0.1% Tween-20 and 0.01% sodium azide). 0.25 nM biotinylated CXCL13 (Almac) was pre-incubated with 0.004% w/v 6-8 μm streptavidin coated polystyrene particles (Spherotec SVP-60-5) for 1 hour at room temperature. The beads were then centrifuged at 3000 rpm for 5 minutes, the supernatant discarded and the pellet resuspended in the original volume of assay buffer to give a 0.004% w/v bead/biotinylated humanCXCL13 mix. 10 μL competitor, assay buffer (total binding control) or excess humanCXCL13 (Non specific binding (NSB) control) was added to a 384 well clear-bottomed non-binding surface assay plate (Costar 3655). 10 μL 5 nM Goat anti-human (H+L) Alexa Fluor®-647 (Invitrogen A21445), 10 μL 0.31 nM Antibody 1 (germlined IgG) and 20 μL Bead/biotinylated CXCL13 mix were then added and the plates incubated for 4 hours at room temperature. FL1 signal was read on the Applied Biosystems Cellular Detection System 8200. Data was analysed using the Wang Goldman algorithm with gating of size 3-12, colour ratio <0.4, minimum count 20.
(§3) Specificity of the germlined Antibody 1 IgG₁ for human CXCL13 (MEL cell derived) over other members of the CXC family of chemokines was determined using the CXCL13 FLISA (Fluorescence linked immunosorbent assay). In this assay the chemokines CXCL3 (R&D Systems), CXCL5 (R&D Systems), CXCL6 (R&D Systems), CXCL8 (R&D Systems), CXCL10 (R&D Systems) and CXCL12 (Peprotech) were tested for competition with biotinylated human CXCL13 (Almac) immobilised on a streptavidin bead for binding to germlined Antibody 1 IgG₁. The biotinylated human CXCL13 antibody-binding interaction was detected with a fluorescently tagged anti-human IgG antibody using Fluorescence Microvolume assay Technology (refer to “Assay Materials and Methods” for details). Standard chemokine names (Zlotnik and Yoshie, 2000) are given together with their most commonly used synonym.

CXCL5 (ENA-78) = target: T3, CXCL5 (ENA-78); test: as above
Method: as §2, §3

CXCL6 (GCP-2) = target: T4, CXCL6 (GCP-2); test: as above
Method: as §2, §3

CXCL3 (GROγ) = target: T5, CXCL3 (GROγ); test: as above
Method: as §2, §3

CXCL12 (SDF-1α) = target: T8, CXCL12 (SDF-1α) (UniProt P48061-2 22-89); test: as above
T8 construct: also called CXCL12 (Peprotech)
Method: as §2, §3

CXCL8 (IL-8) = target: T6, CXCL8 (IL-8); test: as above
Method: as §2, §3

[5] = target: B3; test: cell-based or functional assay; remark: listed apart in the source
[6] = target: B3; test: cell-based or functional assay; remark: listed apart in the source
[7] = target: B3; test: SPR (BIAcore 2000), IgG captured on Protein G', human CXCL13 flowed; average of the 3 experiments of Table 10a
From the text: as §1

[8] = target: B4; test: SPR (BIAcore 2000), IgG amine-coupled to a CM3 chip, cyno CXCL13 0.10-0.60 nM flowed; 1:1 Langmuir (n=1, initial data)
Method: (§4) Antibodies were diluted to 1.0 μg mL-1 in 10 mM acetate buffer pH 4.5. Standard amine linkage chemistry (using amine coupling kit BR-1000-50) was employed to create blank (Fc 1) and 500 RU surfaces of IgG on a CM3 chip (BIAcore, BR-1005-41, lot: 1160100 expiry April '07). The wash solution employed was Glycine pH 2.0.
(§5) Flow of human and cynomolgus CXCL13 over chip surfaces. A dilution series of each CXCL13 (0.10, 0.20, 0.30, 0.40, 0.50 and 0.60 nM) was constructed in HBS-EP buffer and flowed at 30 μL min-1 over all flow cells (association time of 4 minutes, dissociation for 10 minutes and regeneration with two 20 μL pulses of 10 mM Glycine pH 2.0). Blank injections were made with the same buffer. All solutions were prepared and stored in polypropylene.

[9] = target: B3; test: cell-based or functional assay; remark: listed apart in the source
[10] = target: B4; test: cell-based or functional assay
[11] = target: B4; test: SPR (BIAcore 2000), IgG captured on Protein G', cyno CXCL13 0.125-40 nM flowed; 1:1 Langmuir with mass transport limitation
From the text: as §1

[12] = target: B3; test: SPR (BIAcore 2000), IgG amine-coupled to a CM3 chip, human CXCL13 0.10-0.60 nM flowed; 1:1 Langmuir (n=1, initial data)
Method: as §4, §5

[13] = target: B4; test: SPR (BIAcore 2000), IgG captured on Protein G', cyno CXCL13 flowed; average of the 2 experiments of Table 11
From the text: as §1

[14] = target: T7, Biotinylated human CXCL13 (Almac); test: SPR (BIAcore 2000), 28 RU biotinylated human CXCL13 captured on streptavidin, Fab 0.065-2.105 nM flowed
From the text: Standard amine linkage chemistry was employed to create blank (Fc 1) and 228 and 303 RU surfaces of Streptavidin (Perbio/Pierce 21125) on Flow cells (Fc) 2 and 3, respectively, of a normalized CM5 chip (BIAcore, BR-1000-14). This Fc 3 streptavidin surface was used to capture 28 RUs human CXCL13 biotinylated near the C-terminus (Almac custom synthesis).

[15] = target: B1; test: CXCL13 FLISA competition: soluble chemokine titrated against 0.31 nM Antibody 1 germlined IgG1 binding to bead-bound biotinylated human CXCL13 (n = 1)
Method: as §2, with “10 μL 5 nM Goat anti-human (H+L) Alexa Fluor®-647 (Invitrogen A21445), 10 μL 0.31 nM Antibody 1 (germlined IgG) and 20 μL Bead/biotinylated CXCL13 mix were then added and the plates incubated for 4 hours at room temperature.” left out
(§6) Specificity of the germlined Antibody 1 IgG₁ for human CXCL13 (MEL cell derived) over other members of the CXC family of chemokines was determined using the CXCL13 FLISA (Fluorescence linked immunosorbent assay). […] The biotinylated human CXCL13 antibody-binding interaction was detected with a fluorescently tagged anti-human IgG antibody using Fluorescence Microvolume assay Technology (refer to “Assay Materials and Methods” for details). […]

[16] = target: B1; test: CXCL13 FLISA competition: soluble chemokine titrated against Antibody 1 germlined IgG1 binding to bead-bound biotinylated human CXCL13 (n = 1)
Method: as §2, with “10 μL 5 nM Goat anti-human (H+L) Alexa Fluor®-647 (Invitrogen A21445), 10 μL 0.31 nM Antibody 1 (germlined IgG) and 20 μL Bead/biotinylated CXCL13 mix were then added and the plates incubated for 4 hours at room temperature.” left out
as §6

Binder: B1
- Kd [1]: 0.0322 nM and 0.0504 nM and 0.0417 nM
- koff [1]: 0.000684 s⁻¹ and 0.000715 s⁻¹ and 0.000736 s⁻¹
- kon [1]: 2.13e+07 M⁻¹ s⁻¹ and 1.42e+07 M⁻¹ s⁻¹ and 1.76e+07 M⁻¹ s⁻¹
- IC50, B300.19 hCXCR5 chemotaxis assay (ED80 concentration of CXCL13) [2]: 6.22 nM
- IC50, B300.19 hCXCR5 chemotaxis assay (ED80 concentration of CXCL13) [3]: 3.94 nM
- IC50, B300.19 hCXCR5 chemotaxis assay (ED80 concentration of CXCL13) [4]: 4.53 nM
- binding result (CXCL10 (IP10)): no binding (tested: 1 µM)
- binding result (CXCL5 (ENA-78)): no binding (tested: 1 µM)
- binding result (CXCL6 (GCP-2)): no binding (tested: 1 µM)
- binding result (CXCL3 (GROγ)): no binding (tested: 1 µM)
- binding result (CXCL12 (SDF-1α)): no binding (tested: 1 µM)
- binding result (CXCL8 (IL-8)): no binding (tested: 1 µM)
- IC50, human tonsillar B cell chemotaxis assay (100 nM human non-glycosylated CXCL13, ED80; n=4) [5]: 9.59 nM
- IC50, CXCL13 mediated CHO Gqi5 hCXCR5 c4.4 Ca2+ release assay (FLIPR) [6]: 10.4 nM
- Kd [7]: 0.0414 nM
- koff [7]: 0.000712 s⁻¹
- kon [7]: 1.77e+07 M⁻¹ s⁻¹
- Kd [8]: 0.285 nM
- koff [8]: 0.00104 s⁻¹
- kon [8]: 3.63e+06 M⁻¹ s⁻¹
- IC50, LANCE CXCL13 cAMP assay (CHO Gqi5 hCXCR5 cells) [9]: 1.6 nM
- IC50, LANCE CXCL13 cAMP assay (CHO Gqi5 hCXCR5 cells) [10]: 0.3 nM
- Kd [11]: 0.033 nM and 0.0291 nM
- koff [11]: 0.00065 s⁻¹ and 0.000599 s⁻¹
- kon [11]: 1.97e+07 M⁻¹ s⁻¹ and 2.05e+07 M⁻¹ s⁻¹
- Kd [12]: 0.259 nM
- koff [12]: 0.000524 s⁻¹
- kon [12]: 2.02e+06 M⁻¹ s⁻¹
- Kd [13]: 0.0311 nM
- koff [13]: 0.000625 s⁻¹
- kon [13]: 2.01e+07 M⁻¹ s⁻¹

Binder: B2
- Kd [14]: 0.185 nM
- koff [14]: 0.00166 s⁻¹
- kon [14]: 8.98e+06 M⁻¹ s⁻¹

Binder: B3
- IC50 [15]: 0.2 nM

Binder: B4
- IC50 [16]: 0.8 nM

Source: patent US20080199481A1 (AstraZeneca / MedImmune, published 2008)
